Target: T1, p97 N domain (21-196) (UniProt P55072 21-196)
T1 construct: p97 (VCP, valosin-containing protein), N-terminal domain, residues 21-196; The methods describe only the fusion proteins (pVFT3S vector, His6-thioredoxin cut off by TEV, E. coli Rosetta2 (DE3)); also called p97N^WT; N-terminal domain of p97; source: recombinant
Test: ITC; p97 N domain (2.0 mM) injected into the cell with Ufd1 SHP peptide (0.050 mM), 25°C, one-site binding model
Details: both partners purified

T1 sequence (P55072 21-196): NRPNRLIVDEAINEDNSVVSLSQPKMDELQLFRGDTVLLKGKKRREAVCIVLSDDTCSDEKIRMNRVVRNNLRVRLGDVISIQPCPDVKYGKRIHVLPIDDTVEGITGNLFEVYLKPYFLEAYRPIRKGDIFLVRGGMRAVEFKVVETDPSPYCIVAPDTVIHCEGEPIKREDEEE

Kd: 221 ± 36 µM
B1: Ufd1 SHP box peptide (225-235) (peptide)
peptide: FRAFSGSGNRL
notes: also called Ufd1SHP^WT; SHP box of Ufd1; source: synthetic peptide (Peptron, Korea)
